T1: MCM Q176A (Methanothermobacter thermautotrophicus, UniProt O27798 1-666, Q176A)
T1 sequence: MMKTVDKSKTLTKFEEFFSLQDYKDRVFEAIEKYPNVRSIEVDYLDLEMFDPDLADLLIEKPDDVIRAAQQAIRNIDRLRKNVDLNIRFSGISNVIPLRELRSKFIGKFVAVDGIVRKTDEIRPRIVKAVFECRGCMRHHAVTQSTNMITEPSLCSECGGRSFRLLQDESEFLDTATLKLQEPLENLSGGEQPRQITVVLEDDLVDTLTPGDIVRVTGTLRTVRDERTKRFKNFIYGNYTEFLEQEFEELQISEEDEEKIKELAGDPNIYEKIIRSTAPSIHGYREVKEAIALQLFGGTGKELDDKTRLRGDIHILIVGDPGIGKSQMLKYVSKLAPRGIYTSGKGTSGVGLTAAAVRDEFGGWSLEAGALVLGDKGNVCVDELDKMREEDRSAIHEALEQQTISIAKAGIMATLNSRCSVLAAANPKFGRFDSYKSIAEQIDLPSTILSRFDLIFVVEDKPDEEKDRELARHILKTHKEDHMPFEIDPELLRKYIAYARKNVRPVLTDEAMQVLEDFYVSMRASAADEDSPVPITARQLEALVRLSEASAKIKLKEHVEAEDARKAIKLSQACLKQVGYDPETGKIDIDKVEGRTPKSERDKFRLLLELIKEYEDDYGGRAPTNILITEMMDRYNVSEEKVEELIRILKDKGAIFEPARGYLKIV

T2: MCM G211A (Methanothermobacter thermautotrophicus, UniProt O27798 1-666, G211A)
T2 sequence: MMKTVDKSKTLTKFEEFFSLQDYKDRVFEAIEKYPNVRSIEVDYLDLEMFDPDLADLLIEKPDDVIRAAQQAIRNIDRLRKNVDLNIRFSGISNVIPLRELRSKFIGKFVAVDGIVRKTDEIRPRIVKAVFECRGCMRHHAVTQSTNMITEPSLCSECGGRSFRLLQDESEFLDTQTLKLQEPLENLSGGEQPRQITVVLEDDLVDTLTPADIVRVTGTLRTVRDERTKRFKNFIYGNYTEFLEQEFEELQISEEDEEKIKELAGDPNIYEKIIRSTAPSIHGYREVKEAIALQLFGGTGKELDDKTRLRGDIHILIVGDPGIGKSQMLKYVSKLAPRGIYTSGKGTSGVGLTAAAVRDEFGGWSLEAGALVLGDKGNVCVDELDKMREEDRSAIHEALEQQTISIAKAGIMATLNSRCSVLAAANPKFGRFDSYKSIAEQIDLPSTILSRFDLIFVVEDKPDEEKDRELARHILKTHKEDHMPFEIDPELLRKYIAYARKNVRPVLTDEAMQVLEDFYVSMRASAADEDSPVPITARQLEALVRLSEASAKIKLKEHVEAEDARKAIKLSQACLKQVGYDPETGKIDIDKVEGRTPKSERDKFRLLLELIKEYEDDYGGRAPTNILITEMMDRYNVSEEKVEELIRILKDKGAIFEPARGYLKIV

T3: MCM G218A (Methanothermobacter thermautotrophicus, UniProt O27798 1-666, G218A)
T3 sequence: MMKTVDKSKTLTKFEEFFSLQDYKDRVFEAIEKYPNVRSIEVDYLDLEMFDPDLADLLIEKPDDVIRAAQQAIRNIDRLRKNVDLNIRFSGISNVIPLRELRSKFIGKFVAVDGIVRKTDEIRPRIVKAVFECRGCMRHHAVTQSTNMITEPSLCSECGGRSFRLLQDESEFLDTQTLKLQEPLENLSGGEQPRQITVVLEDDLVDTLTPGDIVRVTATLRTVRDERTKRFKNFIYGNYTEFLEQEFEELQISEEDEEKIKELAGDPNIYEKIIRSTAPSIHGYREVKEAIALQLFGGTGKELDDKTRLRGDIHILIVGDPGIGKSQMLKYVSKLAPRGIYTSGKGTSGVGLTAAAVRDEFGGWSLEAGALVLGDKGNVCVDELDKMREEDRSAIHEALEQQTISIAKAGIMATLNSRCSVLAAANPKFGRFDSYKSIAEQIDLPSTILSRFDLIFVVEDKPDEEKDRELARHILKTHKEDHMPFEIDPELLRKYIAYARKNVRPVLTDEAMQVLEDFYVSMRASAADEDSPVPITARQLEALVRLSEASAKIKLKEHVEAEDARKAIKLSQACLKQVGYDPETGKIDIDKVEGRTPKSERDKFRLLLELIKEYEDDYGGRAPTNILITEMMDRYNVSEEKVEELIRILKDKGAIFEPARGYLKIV

T4: MCM P210G (Methanothermobacter thermautotrophicus, UniProt O27798 1-666, P210G)
T4 sequence: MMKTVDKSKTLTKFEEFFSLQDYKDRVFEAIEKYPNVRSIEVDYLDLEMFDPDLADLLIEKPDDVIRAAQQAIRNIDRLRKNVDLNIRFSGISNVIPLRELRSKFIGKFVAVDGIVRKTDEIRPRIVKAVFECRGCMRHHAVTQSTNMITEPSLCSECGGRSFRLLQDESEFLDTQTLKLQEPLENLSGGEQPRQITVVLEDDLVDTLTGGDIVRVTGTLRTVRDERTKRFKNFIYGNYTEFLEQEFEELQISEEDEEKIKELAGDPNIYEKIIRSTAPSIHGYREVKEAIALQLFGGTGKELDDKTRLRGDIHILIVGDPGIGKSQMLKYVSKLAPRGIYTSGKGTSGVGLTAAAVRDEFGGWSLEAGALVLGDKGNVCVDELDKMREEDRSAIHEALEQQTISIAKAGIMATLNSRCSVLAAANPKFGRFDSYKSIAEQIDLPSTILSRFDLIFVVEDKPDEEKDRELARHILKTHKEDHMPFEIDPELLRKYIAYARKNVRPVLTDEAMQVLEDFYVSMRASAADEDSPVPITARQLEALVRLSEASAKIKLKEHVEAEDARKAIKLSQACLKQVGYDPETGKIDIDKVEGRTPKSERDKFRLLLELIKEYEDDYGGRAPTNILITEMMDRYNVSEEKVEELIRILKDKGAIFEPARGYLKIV

T5: MCM PG210,211GA (Methanothermobacter thermautotrophicus, UniProt O27798 1-666, P210G;G211A)
T5 sequence: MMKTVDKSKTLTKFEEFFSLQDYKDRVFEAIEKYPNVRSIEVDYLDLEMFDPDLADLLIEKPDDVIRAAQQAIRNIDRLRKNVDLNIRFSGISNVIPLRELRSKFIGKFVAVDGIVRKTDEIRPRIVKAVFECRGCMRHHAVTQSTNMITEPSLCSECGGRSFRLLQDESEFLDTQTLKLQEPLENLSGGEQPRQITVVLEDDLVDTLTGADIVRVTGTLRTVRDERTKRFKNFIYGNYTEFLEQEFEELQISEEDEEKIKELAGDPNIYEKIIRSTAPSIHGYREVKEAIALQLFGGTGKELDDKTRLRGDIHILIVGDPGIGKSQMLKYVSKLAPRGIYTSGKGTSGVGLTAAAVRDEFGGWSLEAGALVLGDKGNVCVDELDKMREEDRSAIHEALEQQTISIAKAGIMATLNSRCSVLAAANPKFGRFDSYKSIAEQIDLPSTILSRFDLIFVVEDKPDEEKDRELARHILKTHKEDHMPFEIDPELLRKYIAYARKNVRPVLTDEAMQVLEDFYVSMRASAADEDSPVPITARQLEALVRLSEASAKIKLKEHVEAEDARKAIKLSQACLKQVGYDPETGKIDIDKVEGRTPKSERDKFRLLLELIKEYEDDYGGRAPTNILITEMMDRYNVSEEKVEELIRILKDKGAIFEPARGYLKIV


Columns and labels:
MCM Q176A = target: T1, MCM Q176A; test: filter binding; 10 mM Mg2+, no ATP; 25 mM Hepes-NaOH pH 7.5, 2 mM DTT, 10 mM MgCl2, 100 ug/ml BSA, 50 fmol 32P-DNA in 20 ul, 10/30/90 nM MCM monomer (25 nM for the ATP test), 60 C, 10 min; nitrocellulose filter washed with 20 mM Tris-HCl pH 7.5; settings: protein: recombinant; tags: C-terminal His6; chain copies: 6; label: 32P (T4 PNK, 5' end); blunt
MCM G211A [1] = target: T2, MCM G211A; test: as above; settings: protein: recombinant; tags: C-terminal His6; chain copies: 6; label: 32P (T4 PNK, 5' end); blunt
MCM G218A = target: T3, MCM G218A; test: as above; settings: protein: recombinant; tags: C-terminal His6; chain copies: 6; label: 32P (T4 PNK, 5' end); blunt
MCM P210G [2] = target: T4, MCM P210G; test: as above; settings: protein: recombinant; tags: C-terminal His6; chain copies: 6; label: 32P (T4 PNK, 5' end); blunt
MCM G211A [3] = target: T2, MCM G211A; test: filter binding; 10 mM Mg2+, no ATP; better than wild-type; 25 mM Hepes-NaOH pH 7.5, 2 mM DTT, 10 mM MgCl2, 100 ug/ml BSA, 50 fmol 32P-DNA in 20 ul, 10/30/90 nM MCM monomer (25 nM for the ATP test), 60 C, 10 min; nitrocellulose filter washed with 20 mM Tris-HCl pH 7.5; settings: protein: recombinant; tags: C-terminal His6; chain copies: 6; label: 32P (T4 PNK, 5' end)
MCM P210G [4] = target: T4, MCM P210G; test: as above; settings: protein: recombinant; tags: C-terminal His6; chain copies: 6; label: 32P (T4 PNK, 5' end)
MCM PG210,211GA = target: T5, MCM PG210,211GA; test: as above; settings: protein: recombinant; tags: C-terminal His6; chain copies: 6; label: 32P (T4 PNK, 5' end)

Row | Binder | binding signal (MCM Q176A) [% reduction vs wild-type] | binding signal (MCM G211A [1]) [% reduction vs wild-type] | binding signal (MCM G218A) [% reduction vs wild-type] | binding signal (MCM P210G [2]) [% reduction vs wild-type] | binding result (MCM G211A [3]) | binding result (MCM P210G [4]) | binding result (MCM PG210,211GA)
1 | 49-mer dsDNA (dsDNA) DNA 1: GCAGATAACAGTTGTCCTGGAGAACGACCTGGTTGACACCCTCACACCC DNA 2: GGGTGTGAGGGTGTCAACCAGGTCGTTCTCCAGGACAACTGTTATCTGC | ~50 | ~50 | ~25 | ~50 |  |  | 
2 | GCAGATAACAGTTGTCCTGGAGAACGACCTGGTTGACACCCTCACACCC (ssDNA) [49-mer ssDNA] |  |  |  |  | binds | binds | binds
